The values that follow come from US20180155451A1 (published 2018).

The chains are these.
B1: GpH7-A5/GpH7-B3 variant E333_09D/GpL16-k0 (antibody, human IgG1, kappa)
heavy 1: not shown
heavy 2: not shown
light: DIVMTQSPLSLPVTPGEPASISCQASESLVHSNRNTYLHWYLQKPGQSPQLLIYKVSNRFSGVPDRFSGSGSGTDFTLKISRVEAEDVGVYYCSQNTHVPPTFGQGTKVEIERTVAAPSVFIFPPSDEQLKSGTASVVCLLNNFYPREAKVQWKVDNALQSGNSQESVTEQDSKDSTYSLSSTLTLSKADYEKHKVYACEVTHQGLSSPVTKSFNRGEC
notes: also called He Ab E333_09D
B2: GpH7-A5/GpH7-B3 variant S324_15Y/GpL16-k0 (antibody, human IgG1, kappa)
heavy 1: not shown
heavy 2: not shown
light: B1 light
notes: also called He Ab S324_15Y
B3: GpH7-A5/GpH7-B3 variant P271_01G/GpL16-k0 (antibody, human IgG1, kappa)
heavy 1: not shown
heavy 2: not shown
light: B1 light
notes: also called He Ab P271_01G
B4: GpH7-A5/GpH7-B3 variant L234_07I/GpL16-k0 (antibody, human IgG1, kappa)
heavy 1: not shown
heavy 2: not shown
light: B1 light
notes: also called He Ab L234_07I
B5: GpH7-A5/GpH7-B3 variant S324_16H/GpL16-k0 (antibody, human IgG1, kappa)
heavy 1: not shown
heavy 2: not shown
light: B1 light
notes: also called He Ab S324_16H
B6: GpH7-A5/GpH7-B3 variant S337_15Y/GpL16-k0 (antibody, human IgG1, kappa)
heavy 1: not shown
heavy 2: not shown
light: B1 light
notes: also called He Ab S337_15Y
B7: GpH7-A5/GpH7-B3 variant T335_10E/GpL16-k0 (antibody, human IgG1, kappa)
heavy 1: not shown
heavy 2: not shown
light: B1 light
notes: also called He Ab T335_10E
B8: GpH7-A5/GpH7-B3 variant I336_02A/GpL16-k0 (antibody, human IgG1, kappa)
heavy 1: not shown
heavy 2: not shown
light: B1 light
notes: also called He Ab I336_02A
B9: GpH7-A5/GpH7-B3 variant K334_01G/GpL16-k0 (antibody, human IgG1, kappa)
heavy 1: not shown
heavy 2: not shown
light: B1 light
notes: also called He Ab K334_01G
B10: GpH7-A5/GpH7-B3 variant K326_07I/GpL16-k0 (antibody, human IgG1, kappa)
heavy 1: not shown
heavy 2: not shown
light: B1 light
notes: also called He Ab K326_07I
B11: GpH7-A5/GpH7-B3 variant I332_06M/GpL16-k0 (antibody, human IgG1, kappa)
heavy 1: not shown
heavy 2: not shown
light: B1 light
notes: also called He Ab I332_06M
B12: GpH7-A5/GpH7-B3 variant K334_09D/GpL16-k0 (antibody, human IgG1, kappa)
heavy 1: not shown
heavy 2: not shown
light: B1 light
notes: also called He Ab K334_09D
B13: GpH7-A5/GpH7-B3 variant I336_18N/GpL16-k0 (antibody, human IgG1, kappa)
heavy 1: not shown
heavy 2: not shown
light: B1 light
notes: also called He Ab I336_18N
B14: GpH7-A5/GpH7-B3 variant G236_15Y/GpL16-k0 (antibody, human IgG1, kappa)
heavy 1: not shown
heavy 2: not shown
light: B1 light
notes: also called He Ab G236_15Y
B15: GpH7-A5/GpH7-B3 variant P238_09D/GpL16-k0 (antibody, human IgG1, kappa)
heavy 1: not shown
heavy 2: not shown
light: B1 light
notes: also called He Ab P238_09D
B16: GpH7-A5/GpH7-B3 variant I336_03V/GpL16-k0 (antibody, human IgG1, kappa)
heavy 1: not shown
heavy 2: not shown
light: B1 light
notes: also called He Ab I336_03V
B17: GpH7-A5/GpH7-B3 variant S337_04F/GpL16-k0 (antibody, human IgG1, kappa)
heavy 1: not shown
heavy 2: not shown
light: B1 light
notes: also called He Ab S337_04F
B18: GpH7-A5/GpH7-B3 variant S337_18N/GpL16-k0 (antibody, human IgG1, kappa)
heavy 1: not shown
heavy 2: not shown
light: B1 light
notes: also called He Ab S337_18N
B19: GpH7-A5/GpH7-B3 variant I336_06M/GpL16-k0 (antibody, human IgG1, kappa)
heavy 1: not shown
heavy 2: not shown
light: B1 light
notes: also called He Ab I336_06M
B20: GpH7-A5/GpH7-B3 variant I336_08L/GpL16-k0 (antibody, human IgG1, kappa)
heavy 1: not shown
heavy 2: not shown
light: B1 light
notes: also called He Ab I336_08L
B21: GpH7-A5/GpH7-B3 variant H268_18N/GpL16-k0 (antibody, human IgG1, kappa)
heavy 1: not shown
heavy 2: not shown
light: B1 light
notes: also called He Ab H268_18N
B22: GpH7-A5/GpH7-B3 variant S324_02A/GpL16-k0 (antibody, human IgG1, kappa)
heavy 1: not shown
heavy 2: not shown
light: B1 light
notes: also called He Ab S324_02A
B23: GpH7-A5/GpH7-B3 variant S337_10E/GpL16-k0 (antibody, human IgG1, kappa)
heavy 1: not shown
heavy 2: not shown
light: B1 light
notes: also called He Ab S337_10E
B24: GpH7-A5/GpH7-B3 variant T335_07I/GpL16-k0 (antibody, human IgG1, kappa)
heavy 1: not shown
heavy 2: not shown
light: B1 light
notes: also called He Ab T335_07I
B25: GpH7-A5/GpH7-B3 variant E333_20W/GpL16-k0 (antibody, human IgG1, kappa)
heavy 1: not shown
heavy 2: not shown
light: B1 light
notes: also called He Ab E333_20W
B26: GpH7-A5/GpH7-B3 variant T335_13S/GpL16-k0 (antibody, human IgG1, kappa)
heavy 1: not shown
heavy 2: not shown
light: B1 light
notes: also called He Ab T335_13S
B27: GpH7-A5/GpH7-B3 variant H268_02A/GpL16-k0 (antibody, human IgG1, kappa)
heavy 1: not shown
heavy 2: not shown
light: B1 light
notes: also called He Ab H268_02A
B28: GpH7-A5/GpH7-B3 variant S337_20W/GpL16-k0 (antibody, human IgG1, kappa)
heavy 1: not shown
heavy 2: not shown
light: B1 light
notes: also called He Ab S337_20W
B29: GpH7-A5/GpH7-B3 variant L234_04F/GpL16-k0 (antibody, human IgG1, kappa)
heavy 1: not shown
heavy 2: not shown
light: B1 light
notes: also called He Ab L234_04F
B30: GpH7-A5/GpH7-B3 variant I332_01G/GpL16-k0 (antibody, human IgG1, kappa)
heavy 1: not shown
heavy 2: not shown
light: B1 light
notes: also called He Ab I332_01G
B31: GpH7-A5/GpH7-B3 variant K326_08L/GpL16-k0 (antibody, human IgG1, kappa)
heavy 1: not shown
heavy 2: not shown
light: B1 light
notes: also called He Ab K326_08L
B32: GpH7-A5/GpH7-B3 variant P238_10E/GpL16-k0 (antibody, human IgG1, kappa)
heavy 1: not shown
heavy 2: not shown
light: B1 light
notes: also called He Ab P238_10E
B33: GpH7-A5/GpH7-B3 variant L234_20W/GpL16-k0 (antibody, human IgG1, kappa)
heavy 1: not shown
heavy 2: not shown
light: B1 light
notes: also called He Ab L234_20W
B34: GpH7-A5/GpH7-B3 variant S267_02A/GpL16-k0 (antibody, human IgG1, kappa)
heavy 1: not shown
heavy 2: not shown
light: B1 light
notes: also called He Ab S267_02A
B35: GpH7-A5/GpH7-B3 variant E333_13S/GpL16-k0 (antibody, human IgG1, kappa)
heavy 1: not shown
heavy 2: not shown
light: B1 light
notes: also called He Ab E333_13S
B36: GpH7-A5/GpH7-B3 variant Q295_14T/GpL16-k0 (antibody, human IgG1, kappa)
heavy 1: not shown
heavy 2: not shown
light: B1 light
notes: also called He Ab Q295_14T
B37: GpH7-A5/GpH7-B3 variant S267_09D/GpL16-k0 (antibody, human IgG1, kappa)
heavy 1: not shown
heavy 2: not shown
light: B1 light
notes: also called He Ab S267_09D
B38: GpH7-A5/GpH7-B3 variant S298_14T/GpL16-k0 (antibody, human IgG1, kappa)
heavy 1: not shown
heavy 2: not shown
light: B1 light
notes: also called He Ab S298_14T
B39: GpH7-A5/GpH7-B3 variant S337_09D/GpL16-k0 (antibody, human IgG1, kappa)
heavy 1: not shown
heavy 2: not shown
light: B1 light
notes: also called He Ab S337_09D
B40: GpH7-A5/GpH7-B3 variant S337_14T/GpL16-k0 (antibody, human IgG1, kappa)
heavy 1: not shown
heavy 2: not shown
light: B1 light
notes: also called He Ab S337_14T

The target of this assay is T1, FcγRIIIa extracellular domain with C-terminal His tag (human, UniProt P08637 17-208).
T1 construct: extracellular domain; also called FcgRIIIa; 3a; not shown: His tag at the C terminus
T1 sequence (P08637 17-208): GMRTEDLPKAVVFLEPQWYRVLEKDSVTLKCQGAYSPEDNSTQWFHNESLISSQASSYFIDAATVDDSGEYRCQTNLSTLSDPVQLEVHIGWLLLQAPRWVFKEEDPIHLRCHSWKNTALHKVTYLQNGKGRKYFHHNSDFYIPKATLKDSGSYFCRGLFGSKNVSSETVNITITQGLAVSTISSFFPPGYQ
Kind of assay: SPR relative binding; GpH7-A5/GpH7-B3/GpL16-k0 = 100. As to the method: Analysis of interaction between objective antibody and the FcγR was carried out using Biacore T100 (GE Healthcare). HBS-EP+ (GE Healthcare) was used as the running buffer, and the measurement temperature was set to 25° C. Chips produced by immobilizing the antigen peptide by the amine coupling method to a Series S Sencor Chip CM5 (GE Healthcare), or alternatively, chips produced by allowing preliminarily biotinylated antigen peptides to interact with and immobilize onto a Series S Sensor Chip SA (certified) (GE Healthcare) were used. Antibodies of interest were captured onto an antigen peptide-immobilized chip, and allowed to interact to each FcγR diluted with running buffer. To regenerate and repeatedly use the chip, the antibodies captured on the chip were washed off by reacting 10 mM glycine-HCl, pH 1.5.
The FcγR-binding activity of each antibody was assessed primarily using as an indicator the FcγR-binding activity and dissociation constant for FcγR.
On to B1, for which the He/Con_3a is 112 % of control.
In the case of B2, the He/Con_3a is 101 % of control.
Then B3, with 113 % of control.
With B4 the figure was 103 % of control; with B5, 104 % of control.
Then B6, with 102 % of control.
Turning to B7, the He/Con_3a is 107 % of control.
Then B8, with 111 % of control; and B9, with 121 % of control.
Then B10, with 139 % of control; and B11, with 101 % of control.
Then B12, with 160 % of control; and B13, with 104 % of control.
On to B14, for which the He/Con_3a is 121 % of control.
With B15 the figure was 106 % of control; with B16, 112 % of control.
With B17 the figure was 101 % of control; with B18, 104 % of control; with B19, 109 % of control.
With B20 the figure was 106 % of control.
With B21, the He/Con_3a is 104 % of control.
On to B22, for which the He/Con_3a is 104 % of control.
With B23 the figure was 105 % of control.
With B24 the figure was 107 % of control.
With B25 the figure was 101 % of control; with B26, 105 % of control.
B27: the He/Con_3a is 122 % of control.
With B28 the figure was 101 % of control; with B29, 118 % of control.
Then B30, with 111 % of control; and B31, with 114 % of control.
For B32, the He/Con_3a was 105 % of control.
Then B33, with 107 % of control.
With B34, the He/Con_3a is 150 % of control.
Then B35, with 103 % of control; and B36, with 115 % of control.
With B37 the figure was 181 % of control.
B38: the He/Con_3a was 113 % of control.
With B39 the figure was 110 % of control; with B40, 101 % of control.
